Measurements as given in patent publication US20250326865A1, “C-MET PROTEIN-BINDING PEPTIDE COMPLEX” (PeptiDream Inc., priority 2021, published 2025).
Starred links: 1 amine or outer side, 2 acyl side, 3 side chain; linkers in the order of their positions; H or OH if unused. Positions of bridges follow the written chain, without caps; N, C: chain ends. Non-standard residues stand in square brackets, D forms with d. Chains are numbered I, II in the order given. No end group written: not given here. CO(CH2)2(OCH2CH2)17CO = O=C(CCOCCOCCOCCOCCOCCOCCOCCOCCOCCOCCOCCOCCOCCOCCOCCOCCOCCC(=O)[*:2])[*:1]; CO(CH2CH2O)9CH2CH2CO = O=C(CCOCCOCCOCCOCCOCCOCCOCCOCCOCCC(=O)[*:2])[*:1]; NMeF = CN[C@@H](Cc1ccccc1)C(=O)O; Ahp(2) = CCCCC[C@H](N)C(=O)O; NMeC = CN[C@@H](CS)C(=O)O

B1: Peptide complex No. 45 in Table 4 (peptide SEQ ID NO: 32, GFs_c-Met-00014297p; linker SEQ ID NO: 38) (peptide)
peptide: {CH2CO}-[NMeF]TAVS[NMeF]DPD[Ahp(2)]PRWA[NMeC]
chain: GK[CO(CH2)2(OCH2CH2)17CO]KG
modifications: thioether I:N-I:15 (inferred); also: homodimer of two cyclic peptides joined by linker G-K-cPEG17c-K-G, peptide C-terminus on linker
B2: Peptide complex No. 42 in Table 4 (peptide SEQ ID NO: 30, GFs_c-Met-00014304p; linker SEQ ID NO: 36) (peptide)
peptide: {CH2CO}-[NMeF]TAVS[NMeF]DSDRPRWS[NMeC]
chain: GK[CO(CH2CH2O)9CH2CH2CO]KG
modifications: thioether I:N-I:15 (inferred); also: homodimer of two cyclic peptides joined by linker G-K-cPEG9c-K-G, peptide C-terminus on linker
B3: Peptide complex No. 48 in Table 4 (peptide SEQ ID NO: 33, GFs_c-Met-00014300p; linker SEQ ID NO: 36) (peptide)
peptide: {CH2CO}-[NMeF]TAVS[NMeF]DPD[Ahp(2)]PRWS[NMeC]
chain: GK[CO(CH2CH2O)9CH2CH2CO]KG
modifications: thioether I:N-I:15 (inferred); also: homodimer of two cyclic peptides joined by linker, peptide C-terminus on linker
B4: Peptide complex No. 47 in Table 4 (peptide SEQ ID NO: 33, GFs_c-Met-00014300p; linker SEQ ID NO: 38) (peptide)
peptide: {CH2CO}-[NMeF]TAVS[NMeF]DPD[Ahp(2)]PRWS[NMeC]
chain: GK[CO(CH2)2(OCH2CH2)17CO]KG
modifications: thioether I:N-I:15 (inferred); also: homodimer of two cyclic peptides joined by linker G-K-cPEG17c-K-G, peptide C-terminus on linker
B5: Peptide complex No. 40 in Table 4 (peptide SEQ ID NO: 29, GFs_c-Met-00014306p; linker SEQ ID NO: 36) (peptide)
peptide: {CH2CO}-[NMeF]TAVSLDSD[Ahp(2)]PRWS[NMeC]
chain: GK[CO(CH2CH2O)9CH2CH2CO]KG
modifications: thioether I:N-I:15 (inferred); also: homodimer of two cyclic peptides joined by linker G-K-cPEG9c-K-G, peptide C-terminus on linker
B6: Peptide complex No. 46 in Table 4 (peptide SEQ ID NO: 32, GFs_c-Met-00014297p; linker SEQ ID NO: 36) (peptide)
peptide: {CH2CO}-[NMeF]TAVS[NMeF]DPD[Ahp(2)]PRWA[NMeC]
chain: GK[CO(CH2CH2O)9CH2CH2CO]KG
modifications: thioether I:N-I:15 (inferred); also: homodimer of two cyclic peptides joined by linker G-K-cPEG9c-K-G, peptide C-terminus on linker
B7: Peptide complex No. 44 in Table 4 (peptide SEQ ID NO: 31, Gfs_c-Met-00014294p; linker SEQ ID NO: 36) (peptide)
peptide: {CH2CO}-[NMeF]TAVS[NMeF]DSD[Ahp(2)]PRWA[NMeC]
chain: GK[CO(CH2CH2O)9CH2CH2CO]KG
modifications: thioether I:N-I:15 (inferred); also: homodimer of two cyclic peptides joined by linker G-K-cPEG9c-K-G, peptide C-terminus on linker
B8: Peptide complex No. 43 in Table 4 (peptide SEQ ID NO: 31, Gfs_c-Met-00014294p; linker SEQ ID NO: 38) (peptide)
peptide: {CH2CO}-[NMeF]TAVS[NMeF]DSD[Ahp(2)]PRWA[NMeC]
chain: GK[CO(CH2)2(OCH2CH2)17CO]KG
modifications: thioether I:N-I:15 (inferred); also: homodimer of two cyclic peptides joined by linker G-K-cPEG17c-K-G, peptide C-terminus on linker
B9: Peptide complex No. 41 in Table 4 (peptide SEQ ID NO: 30, GFs_c-Met-00014304p; linker SEQ ID NO: 38) (peptide)
peptide: {CH2CO}-[NMeF]TAVS[NMeF]DSDRPRWS[NMeC]
chain: GK[CO(CH2)2(OCH2CH2)17CO]KG
modifications: thioether I:N-I:15 (inferred); also: homodimer of two cyclic peptides joined by linker G-K-cPEG17c-K-G, peptide C-terminus on linker

Target: human c-Met protein (human, UniProt P08581 25-1390)
Experiment: cell-based or functional assay

human c-Met protein, sequence (P08581 25-1390): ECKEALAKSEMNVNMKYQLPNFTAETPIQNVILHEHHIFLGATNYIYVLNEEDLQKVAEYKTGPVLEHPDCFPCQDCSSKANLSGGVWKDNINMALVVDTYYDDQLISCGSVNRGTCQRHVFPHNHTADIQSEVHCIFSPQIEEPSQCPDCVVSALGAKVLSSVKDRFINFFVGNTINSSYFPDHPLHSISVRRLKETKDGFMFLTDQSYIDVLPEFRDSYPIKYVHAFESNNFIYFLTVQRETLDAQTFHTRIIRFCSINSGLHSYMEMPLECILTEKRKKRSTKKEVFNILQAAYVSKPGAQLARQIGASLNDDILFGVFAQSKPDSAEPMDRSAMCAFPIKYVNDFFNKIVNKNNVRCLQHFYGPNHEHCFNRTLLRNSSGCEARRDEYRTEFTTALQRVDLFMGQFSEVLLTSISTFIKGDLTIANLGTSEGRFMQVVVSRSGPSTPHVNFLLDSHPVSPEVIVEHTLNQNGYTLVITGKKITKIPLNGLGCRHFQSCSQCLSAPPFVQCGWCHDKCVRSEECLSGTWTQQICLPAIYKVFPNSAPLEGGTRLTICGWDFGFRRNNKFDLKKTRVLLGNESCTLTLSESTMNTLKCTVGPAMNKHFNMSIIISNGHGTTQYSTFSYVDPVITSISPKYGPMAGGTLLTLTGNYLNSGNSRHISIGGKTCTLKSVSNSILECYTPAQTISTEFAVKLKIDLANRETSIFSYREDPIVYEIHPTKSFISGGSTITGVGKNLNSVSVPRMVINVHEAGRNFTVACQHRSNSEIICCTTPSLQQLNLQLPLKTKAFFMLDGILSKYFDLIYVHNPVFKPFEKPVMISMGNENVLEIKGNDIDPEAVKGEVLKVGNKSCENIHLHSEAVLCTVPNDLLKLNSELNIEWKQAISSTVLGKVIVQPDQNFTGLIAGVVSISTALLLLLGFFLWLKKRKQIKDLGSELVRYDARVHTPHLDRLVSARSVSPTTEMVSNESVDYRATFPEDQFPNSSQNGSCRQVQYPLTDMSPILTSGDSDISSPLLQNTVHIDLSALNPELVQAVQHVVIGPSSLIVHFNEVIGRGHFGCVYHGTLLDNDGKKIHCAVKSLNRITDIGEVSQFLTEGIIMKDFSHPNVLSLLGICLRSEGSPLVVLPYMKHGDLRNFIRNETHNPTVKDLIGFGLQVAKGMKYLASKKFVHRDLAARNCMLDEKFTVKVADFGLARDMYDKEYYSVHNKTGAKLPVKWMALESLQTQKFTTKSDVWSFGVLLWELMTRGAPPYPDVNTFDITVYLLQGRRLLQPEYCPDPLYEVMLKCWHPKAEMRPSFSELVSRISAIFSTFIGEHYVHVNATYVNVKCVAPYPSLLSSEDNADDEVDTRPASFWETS

| Binder | C-Met Agonist Activity (C50; nM): phospho-c-Met AlphaLISA, A431 cells |
| --- | --- |
| B1 | 0.71 nM |
| B2 | 0.33 nM |
| B3 | 0.35 nM |
| B4 | 0.5 nM |
| B5 | 2.13 nM |
| B6 | 0.67 nM |
| B7 | 0.33 nM |
| B8 | 0.45 nM |
| B9 | 0.32 nM |
